Legend:
[1] = molecular target: SpySwitch; assay: ITC; pH 7.5
[2] = molecular target: SpySwitch; assay: ITC

Row | Substance | Kd [1] | stoichiometry N [2]
1 | SpyTag003-MBP | 1500 nM | 1
2 | SpyTag-MBP | 1100 nM | 1

Source: article PMC9240080
